Measured values published in US20020137138A1.

Target: human short form of the 5-HT3-A receptor (Genbank accession #D49394) (human) (UniProt P46098)
Assay: cell-based or functional assay

Sequence of human short form of the 5-HT3-A receptor (Genbank accession #D49394) (human) (P46098 24-478): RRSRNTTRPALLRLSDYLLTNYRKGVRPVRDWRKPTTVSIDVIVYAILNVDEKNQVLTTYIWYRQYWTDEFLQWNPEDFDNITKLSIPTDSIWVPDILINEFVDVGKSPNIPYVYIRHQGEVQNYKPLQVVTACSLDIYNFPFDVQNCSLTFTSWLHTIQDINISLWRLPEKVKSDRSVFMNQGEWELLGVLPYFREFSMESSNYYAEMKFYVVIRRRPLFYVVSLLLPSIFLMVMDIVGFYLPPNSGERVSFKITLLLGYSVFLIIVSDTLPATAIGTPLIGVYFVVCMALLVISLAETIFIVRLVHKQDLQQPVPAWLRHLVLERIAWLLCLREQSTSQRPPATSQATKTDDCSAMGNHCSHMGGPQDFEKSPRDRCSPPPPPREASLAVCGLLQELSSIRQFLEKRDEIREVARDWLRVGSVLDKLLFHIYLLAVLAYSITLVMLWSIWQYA

5-HT response, oocytes at a 1.8x fold 5-HT3-C to 5-HT3-A cRNA concentration: 20 % diminished
peak current to 5-HT, oocytes injected with 5-HT3-C and 5-HT3-A(short) at a ratio of 2:1: -0.028 nA
peak response to 10 µM 5-HT (two-electrode voltage clamp, Xenopus oocytes co-injected with 2-fold more 5-HT3-C cRNA, 0.67 ng): 10 % of control
response to 10 µM 5-HT, oocytes injected with 5-HT3-C:5-HT3-A(short) at 10:1 (3.35 ng : 0.33 ng cRNA): -0.01 nA
Substance: human 5-HT3-C (human serotonin 5-HT3 receptor modifier subunit 5-HT3-C) (from UniProt Q8WXA8 28-447)
